According to patent publication US9388450B2, “FRET based multiplex probes” (University of North Texas Health Science Center at Fort …, priority 2013, dated 2016):
Ends that are not written are not given here.

What was measured:
Format in all cases: biochemical
MMP-2 = target: T1, MMP-2 (Homo sapiens, UniProt P08253); experiment: specificity of peptide: digestion by MMP-2; details: peptide as substrate
T1 sequence (P08253 110-660): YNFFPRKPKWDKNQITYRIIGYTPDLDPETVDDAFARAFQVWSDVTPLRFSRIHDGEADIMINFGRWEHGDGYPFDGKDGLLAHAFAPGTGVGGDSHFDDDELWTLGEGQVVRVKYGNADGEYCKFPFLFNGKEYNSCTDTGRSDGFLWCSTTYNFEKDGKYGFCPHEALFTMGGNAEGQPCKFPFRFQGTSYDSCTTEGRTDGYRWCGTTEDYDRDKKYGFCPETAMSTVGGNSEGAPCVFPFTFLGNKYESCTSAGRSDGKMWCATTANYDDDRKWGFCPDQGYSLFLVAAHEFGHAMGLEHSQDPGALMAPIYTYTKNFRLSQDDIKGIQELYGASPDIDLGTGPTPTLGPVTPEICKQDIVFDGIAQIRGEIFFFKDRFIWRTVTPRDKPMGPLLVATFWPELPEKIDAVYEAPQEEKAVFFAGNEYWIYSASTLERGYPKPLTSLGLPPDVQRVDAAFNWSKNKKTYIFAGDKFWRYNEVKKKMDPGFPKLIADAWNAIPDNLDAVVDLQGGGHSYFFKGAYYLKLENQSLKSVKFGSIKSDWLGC
From the text: (§1) They have also shown that the peptide is very specific and is not digested by MMP-2 enzyme MMP-3 or MMP-7 enzymes. FRET sensitized fluorescence detection proves to be very effective detection approach. Similar specific peptide sequences have been developed for MMP-2, MMP-7 and more. To make highly confident assessment of various proteases activities directly in cells and tissue it is necessary to have single molecular probe capable for simultaneous analysis/detection of more than one protease. The present invention includes methods for developing and constructing a new probe that will be capable of simultaneous detection of activities of two proteases (like MMP-2 and MMP-9) at the same time and the same place by the same molecule (molecular construct). […] The probe is constructed in a way to force two sequential steps of energy transfer process. First step (FRET 1), is mediated through the cleavable linker specific to enzyme 1 (for example MMP-9) and occurs between the first energy donor and first acceptor (acceptor is a central body). Second step (FRET 2), is between the first acceptor that becomes donor to the second acceptor. The second donor and second acceptor are separated by linker specific to enzyme 2 (for example MMP-2). A highly efficient well-defined sequential FRET process offers distinctive signatures for recognizing two proteins activities. […]

MMP-7 = target: T2, MMP-7 (Homo sapiens, UniProt P09237); experiment: specificity of peptide: digestion by MMP-7; details: peptide as substrate
T2 sequence (P09237 95-267): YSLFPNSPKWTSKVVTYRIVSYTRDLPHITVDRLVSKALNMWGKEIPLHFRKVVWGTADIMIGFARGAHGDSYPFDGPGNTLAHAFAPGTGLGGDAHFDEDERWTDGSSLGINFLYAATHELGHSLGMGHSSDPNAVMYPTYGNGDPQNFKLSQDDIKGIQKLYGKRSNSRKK
From the text: as §1

MMP-9 = MMP-9 (Homo sapiens, UniProt P14780); experiment: FRET-based detection of peptide cleavage by MMP-9
From the text: Matrix metalloproteinases (MMPs) are involved in major human diseases such as cancer, AIDS, and inflammation. Therefore, sensitive detection and imaging of MMPs activities offer great clinical value to cancer detection, treatment, and therapy monitoring. Among many successful approaches that utilize peptide chemistry Förster resonance energy transfer (FRET) offers high potential for development of in-vitro and in-vivo proteases assays. Recently we developed and tested a specific peptide sequence that is a substrate for MMP-9 (Lys-Gly-Pro-Arg-Ser-Leu-Ser-Gly-Lys) (SEQ ID NO.: 3) (FIG. 4), which is cleaved into Lys-Gly-Pro-Arg-Ser (SEQ ID NO.: 4) and Leu-Ser-Gly-Lys (SEQ ID NO.: 5). Other non-limiting sequence targets can include, e.g., peptide substrates for a consensus for MMP-2 (Lys-Gly-Ser-Gly-Pro-Tyr-Val-Ile-Trp-Leu-Gly-Lys) (SEQ ID NO.: 6) (SEQ ID NO.: 7). In this approach, one end of the specific peptide was labeled with a donor and the other with an acceptor chromophore. A selective cleavage of this specific peptide sequence by MMP-9 protease results in the separation of the two segments of oligopeptide carrying the donor and acceptor and consequently leads to significant increase of donor signal and decrease in acceptor signal. A ratiometric approach allows excellent dynamic range for detection that produces an almost 60 fold change when going from intact to completely cleaved peptide.
They have also shown that the peptide is very specific and is not digested by MMP-2 enzyme MMP-3 or MMP-7 enzymes. FRET sensitized fluorescence detection proves to be very effective detection approach. Similar specific peptide sequences have been developed for MMP-2, MMP-7 and more. To make highly confident assessment of various proteases activities directly in cells and tissue it is necessary to have single molecular probe capable for simultaneous analysis/detection of more than one protease. […]

MMP-3 = MMP-3 (Homo sapiens, UniProt P08254); experiment: specificity of peptide: digestion by MMP-3; details: peptide as substrate
From the text: as §1

MMP-9, sequence (P14780 94-707): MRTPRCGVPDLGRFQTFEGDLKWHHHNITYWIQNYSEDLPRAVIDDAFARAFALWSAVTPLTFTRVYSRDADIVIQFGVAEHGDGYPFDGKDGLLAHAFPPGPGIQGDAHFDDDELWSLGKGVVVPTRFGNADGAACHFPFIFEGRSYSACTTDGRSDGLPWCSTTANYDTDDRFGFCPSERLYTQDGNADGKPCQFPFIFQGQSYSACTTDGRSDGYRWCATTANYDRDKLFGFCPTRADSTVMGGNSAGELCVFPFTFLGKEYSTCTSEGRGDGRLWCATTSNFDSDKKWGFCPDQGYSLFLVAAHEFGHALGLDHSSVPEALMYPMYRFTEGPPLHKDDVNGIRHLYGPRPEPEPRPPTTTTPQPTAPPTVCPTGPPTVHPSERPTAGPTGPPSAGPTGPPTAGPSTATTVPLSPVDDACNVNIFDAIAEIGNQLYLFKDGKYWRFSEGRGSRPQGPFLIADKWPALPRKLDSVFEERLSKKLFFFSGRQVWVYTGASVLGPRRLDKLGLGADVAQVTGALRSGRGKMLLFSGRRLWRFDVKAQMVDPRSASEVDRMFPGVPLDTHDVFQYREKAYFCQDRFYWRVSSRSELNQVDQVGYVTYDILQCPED
MMP-3, sequence (P08254 100-477): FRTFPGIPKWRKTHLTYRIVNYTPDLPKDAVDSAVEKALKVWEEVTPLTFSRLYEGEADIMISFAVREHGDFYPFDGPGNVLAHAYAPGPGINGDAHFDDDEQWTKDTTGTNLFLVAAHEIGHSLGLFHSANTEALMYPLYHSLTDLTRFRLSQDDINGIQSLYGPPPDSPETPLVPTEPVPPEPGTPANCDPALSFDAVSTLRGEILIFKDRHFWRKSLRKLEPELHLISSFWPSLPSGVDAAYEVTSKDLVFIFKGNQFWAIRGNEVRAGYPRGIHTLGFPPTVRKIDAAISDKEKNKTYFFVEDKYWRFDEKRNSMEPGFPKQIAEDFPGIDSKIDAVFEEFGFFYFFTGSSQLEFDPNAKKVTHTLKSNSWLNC

digestion of the peptide by MMP-2 enzyme (MMP-2): not digested
digestion of the peptide by MMP-7 enzyme (MMP-7): not digested
cleavage of the peptide by MMP-9 (MMP-9; peptide as substrate): very effectively cleaves
FRET when intact (MMP-9; peptide labeled with donor and acceptor, intact, before addition of MMP-9): > 90%
ratiometric change (donor/acceptor signal) going from intact to completely cleaved peptide (MMP-9; peptide labeled with donor on one end and acceptor on the other, cleaved by MMP-9): ~60 fold
digestion of the peptide by MMP-3 enzyme (MMP-3): not digested
Substance: Lys-Gly-Pro-Arg-Ser-Leu-Ser-Gly-Lys (KGPRSLSGK; also: donor and acceptor labels) [labeled with donor on one end and acceptor on the other]
